What all share (assay): FRET or BRET
Assay [1] concerns the target YFP-Spo21 (S. cerevisiae) (UniProt Q12411).
In assay [2] the target is Mpc54-YFP (S. cerevisiae) (UniProt Q08550).
Assay [3] concerns the target YFP-Cnm67 (S. cerevisiae) (UniProt P53865).
The target in assay [4] is Spo21-YFP (S. cerevisiae) (UniProt Q12411).

Consider three substances from PMC2965686.

UniProt Q08550, sequence (Q08550 whole entry): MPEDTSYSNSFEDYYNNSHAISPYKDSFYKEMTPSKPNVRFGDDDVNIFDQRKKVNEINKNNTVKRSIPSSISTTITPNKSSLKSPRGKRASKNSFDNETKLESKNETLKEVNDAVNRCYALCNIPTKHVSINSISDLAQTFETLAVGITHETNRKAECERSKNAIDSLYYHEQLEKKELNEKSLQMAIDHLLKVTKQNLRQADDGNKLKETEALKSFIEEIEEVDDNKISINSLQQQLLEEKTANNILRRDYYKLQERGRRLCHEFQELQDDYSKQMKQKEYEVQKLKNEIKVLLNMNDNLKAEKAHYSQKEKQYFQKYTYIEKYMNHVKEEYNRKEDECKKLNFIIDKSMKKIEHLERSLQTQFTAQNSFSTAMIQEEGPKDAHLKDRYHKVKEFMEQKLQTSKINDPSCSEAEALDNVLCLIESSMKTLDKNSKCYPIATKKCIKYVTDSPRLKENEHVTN
UniProt P53865, sequence (P53865 whole entry): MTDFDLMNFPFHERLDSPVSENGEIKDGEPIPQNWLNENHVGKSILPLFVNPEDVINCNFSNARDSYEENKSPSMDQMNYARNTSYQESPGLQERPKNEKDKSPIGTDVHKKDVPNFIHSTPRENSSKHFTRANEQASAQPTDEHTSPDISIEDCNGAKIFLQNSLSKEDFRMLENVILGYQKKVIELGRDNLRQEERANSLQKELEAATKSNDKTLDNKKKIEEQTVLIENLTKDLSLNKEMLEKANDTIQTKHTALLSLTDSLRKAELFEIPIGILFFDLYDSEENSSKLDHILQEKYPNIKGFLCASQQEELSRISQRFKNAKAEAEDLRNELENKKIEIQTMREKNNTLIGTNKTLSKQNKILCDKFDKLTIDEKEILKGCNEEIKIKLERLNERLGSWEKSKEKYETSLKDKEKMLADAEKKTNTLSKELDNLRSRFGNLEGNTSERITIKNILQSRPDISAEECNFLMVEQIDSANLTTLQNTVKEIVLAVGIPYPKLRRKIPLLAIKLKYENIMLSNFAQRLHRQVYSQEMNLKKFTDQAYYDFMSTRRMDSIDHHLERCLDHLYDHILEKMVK

“CFP-Mpc54 (from UniProt Q08550 1-464) (natural protein)”: the FretR in assay [1] was found to be 1.23.

Consider “Mpc54-CFP (from UniProt Q08550 1-464) (natural protein)”, for which the FretR is 1.26 in assay [2] and 1.35 in assay [3].

As for “Spo21-CFP (from UniProt Q12411 1-609) (natural protein)”, the FretR stood at 1.24 in assay [2], 1.34 in assay [4] and 1.47 in assay [3].
